Assay [1] has as its target truncated FcRH5 (deletion of amino acids 1-744) with N-terminal gD tag, on cells (human) (UniProt Q96RD9). Nature of the assay: cell-based or functional assay.
Assay [2] addresses T1, human FcRH5 protein fragment (soluble) (human, UniProt Q96RD9 16-851).
T1 construct: whole entry named; also called soluble human FcRH5; Human FcRH5 (BIACORE analyte)
T1 sequence: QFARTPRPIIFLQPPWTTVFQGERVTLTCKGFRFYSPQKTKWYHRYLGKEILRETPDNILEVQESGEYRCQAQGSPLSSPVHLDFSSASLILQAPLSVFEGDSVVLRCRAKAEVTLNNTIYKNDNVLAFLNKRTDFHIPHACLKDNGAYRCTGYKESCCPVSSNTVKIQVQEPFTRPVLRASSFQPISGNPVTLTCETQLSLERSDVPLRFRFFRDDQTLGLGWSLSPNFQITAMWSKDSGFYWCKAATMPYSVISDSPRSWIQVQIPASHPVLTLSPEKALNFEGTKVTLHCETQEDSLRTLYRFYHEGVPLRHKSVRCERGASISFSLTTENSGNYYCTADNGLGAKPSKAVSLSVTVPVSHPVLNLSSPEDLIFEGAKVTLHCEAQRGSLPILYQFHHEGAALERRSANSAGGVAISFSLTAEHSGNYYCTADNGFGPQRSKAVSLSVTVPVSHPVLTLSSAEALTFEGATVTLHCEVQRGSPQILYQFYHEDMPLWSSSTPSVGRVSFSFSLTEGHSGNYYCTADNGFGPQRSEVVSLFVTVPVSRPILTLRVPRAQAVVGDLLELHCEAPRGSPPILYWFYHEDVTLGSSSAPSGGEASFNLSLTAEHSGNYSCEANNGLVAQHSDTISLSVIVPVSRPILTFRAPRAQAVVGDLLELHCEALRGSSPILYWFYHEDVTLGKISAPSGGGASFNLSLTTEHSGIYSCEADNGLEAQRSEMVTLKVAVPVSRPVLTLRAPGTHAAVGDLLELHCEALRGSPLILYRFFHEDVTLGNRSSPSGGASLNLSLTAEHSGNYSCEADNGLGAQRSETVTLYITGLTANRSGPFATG
Nature of the assay: SPR (BIACORE), antibody as ligand, HuFcRH5 as sample in stepwise injections, 25 °C, 1:1 binding model. For orientation: In SPR one partner is held on a chip, and binding of the other changes the refractive index at the surface.

The target of assay [3] is T2, human CD3ε (human, UniProt P07766 23-126, limits assumed).
T2 construct: also called hCD3ε
Nature of the assay: ELISA on CD3. (In general: In an ELISA, binding on a coated surface is turned into a signal by an enzyme label.)

The target of assay [4] is T1, human FcRH5 protein fragment (soluble). Nature of the assay: ELISA on FcRH5 (form of the coated FcRH5 not given).
Assay [5] addresses T2, human CD3ε. Nature of the assay: assay not stated.
The target in assay [6] is T2, human CD3ε. Nature of the assay: BIACORE, monovalent.
The target in assay [7] is T1, human FcRH5 protein fragment (soluble). The assay is described as follows: SPR screening.
Assay [8] shares this target. The assay is described as follows: SPR (BIACORE), Human FcRH5, 1:1 binding model.
Assay [9] has the same target. The assay is described as follows: BIACORE.
The target in assay [10] is T3, cynomolgus FcRH5 protein fragment (soluble) (cynomolgus monkey).
T3 construct: whole entry named; also called Cyno FcRH5 (BIACORE analyte)
T3 chain: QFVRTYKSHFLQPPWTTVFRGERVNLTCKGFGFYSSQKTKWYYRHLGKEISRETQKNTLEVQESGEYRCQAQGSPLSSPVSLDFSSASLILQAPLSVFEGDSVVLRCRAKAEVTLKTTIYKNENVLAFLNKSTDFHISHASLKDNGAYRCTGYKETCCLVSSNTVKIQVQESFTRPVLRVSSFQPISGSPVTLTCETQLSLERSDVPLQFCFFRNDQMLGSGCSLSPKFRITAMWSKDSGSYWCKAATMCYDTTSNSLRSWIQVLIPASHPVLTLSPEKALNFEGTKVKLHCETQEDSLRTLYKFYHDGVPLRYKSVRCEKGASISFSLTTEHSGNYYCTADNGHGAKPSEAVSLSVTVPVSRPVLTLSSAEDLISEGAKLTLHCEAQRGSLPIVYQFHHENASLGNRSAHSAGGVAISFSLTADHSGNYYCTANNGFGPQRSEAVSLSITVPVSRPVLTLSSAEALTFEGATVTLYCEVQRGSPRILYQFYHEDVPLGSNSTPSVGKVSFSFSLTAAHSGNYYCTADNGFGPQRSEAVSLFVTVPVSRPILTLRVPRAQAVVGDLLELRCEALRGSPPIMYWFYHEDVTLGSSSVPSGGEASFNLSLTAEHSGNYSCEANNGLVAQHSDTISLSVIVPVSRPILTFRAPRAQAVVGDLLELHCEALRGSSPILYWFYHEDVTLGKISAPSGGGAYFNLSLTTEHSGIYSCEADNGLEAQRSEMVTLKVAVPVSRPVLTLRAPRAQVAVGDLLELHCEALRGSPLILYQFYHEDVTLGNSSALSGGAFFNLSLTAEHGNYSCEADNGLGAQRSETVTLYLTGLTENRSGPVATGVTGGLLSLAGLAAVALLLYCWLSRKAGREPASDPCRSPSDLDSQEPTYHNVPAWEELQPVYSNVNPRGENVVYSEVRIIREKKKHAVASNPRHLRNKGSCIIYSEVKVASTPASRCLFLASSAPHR
The assay is described as follows: BIACORE.

The target in assay [11] is T3, cynomolgus FcRH5 protein fragment …. The assay is described as follows: SPR (BIACORE), Cyno FcRH5, 1:1 binding model.

T2 sequence (P07766 23-126 limits assumed): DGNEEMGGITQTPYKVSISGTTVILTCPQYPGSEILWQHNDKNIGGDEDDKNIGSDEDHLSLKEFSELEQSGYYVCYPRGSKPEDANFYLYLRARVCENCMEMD

As for “anti-gD/UCHT1.v9 TDB (bispecific antibody)”, the target cell killing with the truncated FcRH5 construct, EC50 in assay [1] came out at 0.19 nM.

B1: h7D8.L1H2 (antibody)
heavy chain: EVQLVESGGGLVQPGGSLRLSCAVSGIDLSSYAMGWVRQAPGKGLEWIGTIGTGGTPYYASWAKGRFTISKDSSKNTVYLQMNSLRAEDTAVYFCARDMYTGSIYYDMWGQGTLVTVSS
light chain: DAQLTQSPSSLSASVGDRVTITCQSSQSVFNNAQLSWYQQKPGKPPKLLIYDTSNLASGVPSRFSGSGSGTDFTLTISSLQPEDFATYYCLGAYTDDADNAFGQGTKVEIK
notes: humanized, rabbit-derived anti-FcRH5 antibody; The sheet prints h7D8.L1H2* with an unexplained asterisk; also called hu7D8.L1H2; Hu7D8.L1H2
As for B1, in [2], the koff (in general, the first-order rate constant of dissociation) stood at 0.00136 s⁻¹ and the on-rate constant (kon) (as a rule, the rate constant with which the complex forms) was determined as 1.08e+06 M⁻¹ s⁻¹.

B2: bis-Fab B (bispecific antibody, V domains shown)
VH 1: EVQLVESGPGLVKPSETLSLTCTVSGFSLTRFGVHWVRQPPGKGLEWLGVIWRGGSTDYNAAFVSRLTISKDNSKNQVSLKLSSVTAADTAVYYCSNHYYGSSDYALDNWGQGTLVTVSS
VL 1: DIQMTQSPSSLSASVGDRVTITCKASQDVRNLVVWFQQKPGKAPKLLIYSGSYRYSGVPSRFSGSGSGTDFTLTISSLQPEDFATYYCQQHYSPPYTFGQGTKVEIK
VH 2: EVQLVQSGAEVKKPGASVKVSCKASGFTFTSYYIHWVRQAPGQGLEWIGWIYPENDNTKYNEKFKDRVTITADTSTSTAYLELSSLRSEDTAVYYCARDGYSRYYFDYWGQGTLVTVSS
VL 2: DIVMTQSPDSLAVSLGERATICCKSSQSLLNSRTRKNYLAWYQQKPGQSPKLLIYWTSTRKSGVPDRFSGSGSGTDFTLTISSLQAEDVAVYYCKQSFILRTFGQGTKVEIK
notes: bis-Fab: 1G7.v85 Fab (HC A114C, constant part) crosslinked to 38E4.v1 Fab (LC N22C)
As to B2, the EC50 (read off the curve) (commonly the concentration needed to bring the measured effect to its halfway point) was about 7 ng/mL with human CD3ε [3] and about 10 ng/mL in assay [4].

B3: 40G5c (antibody, V domains shown)
VH: EVQLVQSGAEVKKPGASVKVSCKASGYTFTNYYIHWVRQAPGQGLEWIGWIYPGDGNTKYNEKFKGRATLTADTSTSTAYLELSSLRSEDTAVYYCARDSYSNYYFDYWGQGTLVTVSS
VL: DIVMTQSPDSLAVSLGERATINCKSSQSLLNSRTRKNYLAWYQQKPGQPPKLLIYWASTRESGVPDRFSGSGSGTDFTLTISSLQAEDVAVYYCTQSFILRTFGQGTKVEIK
notes: humanized anti-CD3ε; also called hu40G5c
Consider B3, for which the EC50 (usually the concentration giving half of the maximal effect) with human CD3ε [5] came out at 13 nM. In the assay with human CD3ε [6], the dissociation constant Kd – broadly, the equilibrium constant for the complex coming apart – worked out at 51 nM.

B4: 38E4.v1 (antibody, V domains shown)
VH: EVQLVQSGAEVKKPGASVKVSCKASGFTFTSYYIHWVRQAPGQGLEWIGWIYPENDNTKYNEKFKDRVTITADTSTSTAYLELSSLRSEDTAVYYCARDGYSRYYFDYWGQGTLVTVSS
VL: DIVMTQSPDSLAVSLGERATINCKSSQSLLNSRTRKNYLAWYQQKPGQSPKLLIYWTSTRKSGVPDRFSGSGSGTDFTLTISSLQAEDVAVYYCKQSFILRTFGQGTKVEIK
notes: humanized anti-CD3ε; also called anti-CD3 arm 38E4.v1
In the assay with human CD3ε [5], B4 returned an EC50 of 1 nM. Further, the affinity with human CD3ε [6], expressed as Kd, was 0.5 nM.

B5: hu1G7.v1 with heavy chain L29T and S56T (antibody, V domains shown)
VH: EVQLVESGPGLVKPSETLSLTCTVSGFSTTRFGVHWVRQPPGKGLEWLGVIWRGGTTDYNAAFMSRLTISKDNSKNQVSLKLSSVTAADTAVYYCSNHYYGSSDYALDNWGQGTLVTVSS
VL: DIQMTQSPSSLSASVGDRVTITCKASQDVSNIVVWFQQKPGKSPKLLIYSASYRYTGVPSRFSGSGSGTDFTLTISSLQPEDFATYYCQQHYSSPYTFGQGTKVEIK
notes: also called L29T/S56T double mutant
With B5, the “average fold improvement in affinity” value in [7] worked out at 1.2 fold.

B6: bis-Fab D (bispecific antibody, V domains shown)
VH 1: EVQLVESGPGLVKPSETLSLTCTVSGFSLTRFGVHWVRQPPGKGLEWLGVIWRGGSTDYNAAFVSRLTISKDNSKNQVSLKLSSVTAADTAVYYCSNHYYGSSDYALDNWGQGTLVTVSS
VL 1: DIQMTQSPSSLSASVGDRVTITCKASQDVRNLVVWFQQKPGKAPKLLIYSGSYRYSGVPSRFSGSGSGTDFTLTISSLQPEDFATYYCQQHYSPPYTFGQGTKVEIK
VH 2: EVQLVQSGAEVKKPGASVKVSCKASGFTFTSYYIHWVRQAPGQGLEWIGWIYPENDNTKYNEKFKDRVTITADTSTSTAYLELSSLRSEDTAVYYCARDGYSRYYFDYWGQGTLVTVSS
VL 2: DIVMTQSPDSLAVSLGERATICCKSSQSLLNSRTRKNYLAWYQQKPGQSPKLLIYWTSTRKSGVPDRFSGSGSGTDFTLTISSLQAEDVAVYYCKQSFILRTFGQGTKVEIK
notes: bis-Fab: 1G7.v85 Fab (LC A149C, constant part) crosslinked to 38E4.v1 Fab (LC N22C)
Take B6: the figures for the “EC50 (read off the curve)” value (with human CD3ε [3]; in assay [4]) were about 7 ng/mL and about 10 ng/mL, respectively.

B7: F(ab′)2 A (bispecific antibody, V domains shown)
VH 1: EVQLVESGPGLVKPSETLSLTCTVSGFSLTRFGVHWVRQPPGKGLEWLGVIWRGGSTDYNAAFVSRLTISKDNSKNQVSLKLSSVTAADTAVYYCSNHYYGSSDYALDNWGQGTLVTVSS
VL 1: DIQMTQSPSSLSASVGDRVTITCKASQDVRNLVVWFQQKPGKAPKLLIYSGSYRYSGVPSRFSGSGSGTDFTLTISSLQPEDFATYYCQQHYSPPYTFGQGTKVEIK
VH 2: EVQLVQSGAEVKKPGASVKVSCKASGFTFTSYYIHWVRQAPGQGLEWIGWIYPENDNTKYNEKFKDRVTITADTSTSTAYLELSSLRSEDTAVYYCARDGYSRYYFDYWGQGTLVTVSS
VL 2: DIVMTQSPDSLAVSLGERATINCKSSQSLLNSRTRKNYLAWYQQKPGQSPKLLIYWTSTRKSGVPDRFSGSGSGTDFTLTISSLQAEDVAVYYCKQSFILRTFGQGTKVEIK
Regarding B7, the “EC50 (read off the curve)” value in the assay with human CD3ε [3] is about 0.7 ng/mL; in [4], about 50 ng/mL.

B8: 38E4.v11 (antibody, V domains shown)
VH: EVQLVQSGAEVKKPGASVKVSCKASGFTFTSYYIHWVRQAPGQGLEWIGWIYPENDNTKYNEKFKDRVTITADTSTSTAYLELSSLRSEDTAVYYCARDGYSRYYFDYWGQGTLVTVSS
VL: DIVMTQSPDSLAVSLGERATINCKSSQSLLNSRTRKNYLAWYQQKPGQSPKLLIYWTSTRKSGVPDRFSGSGSGTDFTLTISSLQAEDVAVYYCTQSFILRTFGQGTKVEIK
notes: humanized anti-CD3ε
In turn, B8 had an EC50 in the assay with human CD3ε [5] of 0.05 nM.

B9: hu1G7.v93/38E4.v1 TDB (bispecific antibody, V domains shown)
VH 1: EVQLVESGPGLVKPSETLSLTCTVSGFSTTRFGVHWVRQPPGKGLEWLGVIWRGGSTDYNAAFVSRLTISKDNSKNQVSLKLSSVTAADTAVYYCSNHYYGSPDYALDNWGQGTLVTVSS
VL 1: DIQMTQSPSSLSASVGDRVTITCKASQDVSNLVVWFQQKPGKAPKLLIYSGSYRYSGVPSRFSGSGSGTDFTLTISSLQPEDFATYYCQQHYSPPYTFGQGTKVEIK
VH 2: EVQLVQSGAEVKKPGASVKVSCKASGFTFTSYYIHWVRQAPGQGLEWIGWIYPENDNTKYNEKFKDRVTITADTSTSTAYLELSSLRSEDTAVYYCARDGYSRYYFDYWGQGTLVTVSS
VL 2: DIVMTQSPDSLAVSLGERATINCKSSQSLLNSRTRKNYLAWYQQKPGQSPKLLIYWTSTRKSGVPDRFSGSGSGTDFTLTISSLQAEDVAVYYCKQSFILRTFGQGTKVEIK
notes: knob-into-hole TDB; also called 1G7.v93 TDB
For the molecule B9, the figures for the koff in assay [8] and in assay [11] were 0.000421 s⁻¹ and 0.000417 s⁻¹, respectively. Further, the kon was found to be 395000 M⁻¹ s⁻¹ in [8] and 51600 M⁻¹ s⁻¹ in assay [11]. For the same molecule, the equilibrium dissociation constant (Kd) in assay [9] came out at 1.1 nM; in assay [10], 8.1 nM; in assay [11], 8.08 nM.

The values above are taken from patent publication US20240383984A1 (Genentech, published 2024).
